Our source for the ELISA Log10 Titer values is patent US20210138049A1.

The target in one experiment is β-Syn (103-134) peptide. Description: peptide ELISA, serum, 0 w.
Experiment [1] has as its target α-Synuclein 91-140 peptide (human). The experiment can be described thus: peptide ELISA, serum, 0 w. (ELISA stands for enzyme-linked immunosorbent assay.)

Several values for one entry are separate records, joined by “and”; a condition that tells them apart may be missing. Equal entries are not always repeated.

For the substance “preimmune guinea pig serum / antibodies purified from preimmune serum of naïve guinea pigs (antibody)”, the ELISA Log10 Titer with β-Syn (103-134) peptide was 0.1 Log10 titer; in experiment [1], 0.1 Log10 titer and 0.2 Log10 titer and 0.3 Log10 titer.
